Measurements: patent US20160272683A1 (Novo Nordisk, published 2016)
Blank lines part the entries; values can stand above or below the binder they belong to. Numbered stars: 1 amine (or outer) side, 2 acyl side, 3 side chain; on linkers, the order of the positions; unused ones are H or OH. Side chains are listed from the residue outwards. Ends that are not written are not given here. * marks the point of attachment. C20 diacid = O=C(O)CCCCCCCCCCCCCCCCCCC(=O)*; γGlu = O=C(O)[C@H](CCC(=O)[*:2])N[*:1]

Biological target: T1, human calcitonin receptor (human, UniProt P30988 25-474)
T1 construct: whole, on cells; also called hCT-R; hCTR
T1 sequence (looked up): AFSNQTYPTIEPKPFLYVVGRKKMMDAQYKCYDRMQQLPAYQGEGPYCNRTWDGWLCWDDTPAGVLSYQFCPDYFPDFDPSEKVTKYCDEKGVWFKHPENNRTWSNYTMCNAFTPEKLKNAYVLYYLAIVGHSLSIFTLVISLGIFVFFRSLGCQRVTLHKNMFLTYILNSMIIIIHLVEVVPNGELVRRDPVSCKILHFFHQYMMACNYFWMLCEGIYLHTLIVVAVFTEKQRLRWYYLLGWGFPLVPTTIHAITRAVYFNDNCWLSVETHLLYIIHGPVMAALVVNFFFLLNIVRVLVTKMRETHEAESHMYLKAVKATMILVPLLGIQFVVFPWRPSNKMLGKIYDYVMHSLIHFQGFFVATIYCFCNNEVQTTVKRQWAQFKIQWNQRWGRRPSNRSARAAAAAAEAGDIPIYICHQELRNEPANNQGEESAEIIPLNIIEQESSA
Assay: whole-cell competition vs 125I-human calcitonin (Assay VIIa)
Procedure, shortened: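 BHK tk'ts 13 cells stably co-expressing human calcitonin receptor and a CRE-luciferase reporter, seeded overnight at 37 °C. Bound tracer counted by scintillation after cold HBSS washes and NaOH/SDS lysis; IC₅₀ from one-site competition fit taken as receptor affinity.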

B3: [des1, 2L, 4G, 9V, 15Q, 21Q, 23Y, 30S, 31Q, 32T, 33Y]mimylin (peptide)
peptide: LSGLSTAVLGRLSQELHELQTYPRTETGSQTY-NH2
notes: backbone without side chain
- IC50: 959 pM

B4: [des1, 4G, 15Q, 21Q, 23Y, 30S, 31K(C20 diacid-gGlu), 32T, 33Y]mimylin (peptide)
peptide: ASGLSTAALGRLSQELHELQTYPRTETGSK([γGlu-C20 diacid])TY-NH2
modifications: N-terminus assumed
SMILES: CC(C)C[C@H](NC(=O)CNC(=O)[C@H](CO)NC(=O)[C@H](C)N)C(=O)N[C@@H](CO)C(=O)N[C@H](C(=O)N[C@@H](C)C(=O)N[C@@H](C)C(=O)N[C@@H](CC(C)C)C(=O)NCC(=O)N[C@@H](CCCNC(=N)N)C(=O)N[C@@H](CC(C)C)C(=O)N[C@@H](CO)C(=O)N[C@@H](CCC(N)=O)C(=O)N[C@@H](CCC(=O)O)C(=O)N[C@@H](CC(C)C)C(=O)N[C@@H](Cc1c[nH]cn1)C(=O)N[C@@H](CCC(=O)O)C(=O)N[C@@H](CC(C)C)C(=O)N[C@@H](CCC(N)=O)C(=O)N[C@H](C(=O)N[C@@H](Cc1ccc(O)cc1)C(=O)N1CCC[C@H]1C(=O)N[C@@H](CCCNC(=N)N)C(=O)N[C@H](C(=O)N[C@@H](CCC(=O)O)C(=O)N[C@H](C(=O)NCC(=O)N[C@@H](CO)C(=O)N[C@@H](CCCCNC(=O)CC[C@H](NC(=O)CCCCCCCCCCCCCCCCCCC(=O)O)C(=O)O)C(=O)N[C@H](C(=O)N[C@@H](Cc1ccc(O)cc1)C(N)=O)[C@@H](C)O)[C@@H](C)O)[C@@H](C)O)[C@@H](C)O)[C@@H](C)O
- IC50: 1270 pM

B7: [N-terminal(C20 diacid-gGlu), 4Q, 9V, 15Q, 21Q, 23Y, 27G, 30S, 31G, 32T, 33Y]mimylin (peptide)
peptide: {C20 diacid-γGlu}-EASQLSTAVLGRLSQELHELQTYPRTGTGSGTY-NH2
SMILES: CC(C)C[C@H](NC(=O)[C@H](CCCNC(=N)N)NC(=O)CNC(=O)[C@H](CC(C)C)NC(=O)[C@@H](NC(=O)[C@H](C)NC(=O)[C@@H](NC(=O)[C@H](CO)NC(=O)[C@H](CC(C)C)NC(=O)[C@H](CCC(N)=O)NC(=O)[C@H](CO)NC(=O)[C@H](C)NC(=O)[C@H](CCC(=O)O)NC(=O)CC[C@H](NC(=O)CCCCCCCCCCCCCCCCCCC(=O)O)C(=O)O)[C@@H](C)O)C(C)C)C(=O)N[C@@H](CO)C(=O)N[C@@H](CCC(N)=O)C(=O)N[C@@H](CCC(=O)O)C(=O)N[C@@H](CC(C)C)C(=O)N[C@@H](Cc1c[nH]cn1)C(=O)N[C@@H](CCC(=O)O)C(=O)N[C@@H](CC(C)C)C(=O)N[C@@H](CCC(N)=O)C(=O)N[C@H](C(=O)N[C@@H](Cc1ccc(O)cc1)C(=O)N1CCC[C@H]1C(=O)N[C@@H](CCCNC(=N)N)C(=O)N[C@H](C(=O)NCC(=O)N[C@H](C(=O)NCC(=O)N[C@@H](CO)C(=O)NCC(=O)N[C@H](C(=O)N[C@@H](Cc1ccc(O)cc1)C(N)=O)[C@@H](C)O)[C@@H](C)O)[C@@H](C)O)[C@@H](C)O
- IC50: 796 pM

B8: [N-terminal(C20 diacid-gGlu), 2L, 4G, 8L, 9V, 15Q, 21Q, 23Y, 27G, 30S, 31G, 32T, 33Y]mimylin (peptide)
peptide: {C20 diacid-γGlu}-ELSGLSTLVLGRLSQELHELQTYPRTGTGSGTY-NH2
SMILES: CC(C)C[C@H](NC(=O)CNC(=O)[C@H](CO)NC(=O)[C@H](CC(C)C)NC(=O)[C@H](CCC(=O)O)NC(=O)CC[C@H](NC(=O)CCCCCCCCCCCCCCCCCCC(=O)O)C(=O)O)C(=O)N[C@@H](CO)C(=O)N[C@H](C(=O)N[C@@H](CC(C)C)C(=O)N[C@H](C(=O)N[C@@H](CC(C)C)C(=O)NCC(=O)N[C@@H](CCCNC(=N)N)C(=O)N[C@@H](CC(C)C)C(=O)N[C@@H](CO)C(=O)N[C@@H](CCC(N)=O)C(=O)N[C@@H](CCC(=O)O)C(=O)N[C@@H](CC(C)C)C(=O)N[C@@H](Cc1c[nH]cn1)C(=O)N[C@@H](CCC(=O)O)C(=O)N[C@@H](CC(C)C)C(=O)N[C@@H](CCC(N)=O)C(=O)N[C@H](C(=O)N[C@@H](Cc1ccc(O)cc1)C(=O)N1CCC[C@H]1C(=O)N[C@@H](CCCNC(=N)N)C(=O)N[C@H](C(=O)NCC(=O)N[C@H](C(=O)NCC(=O)N[C@@H](CO)C(=O)NCC(=O)N[C@H](C(=O)N[C@@H](Cc1ccc(O)cc1)C(N)=O)[C@@H](C)O)[C@@H](C)O)[C@@H](C)O)[C@@H](C)O)C(C)C)[C@@H](C)O
- IC50: 3620 pM

These reach a lower IC50. Values come first.

- IC50: 318 pM
B1: [N-terminal(C20 diacid-gGlu), des1, 4G, 9V, 15Q, 21Q, 23Y, 30S, 31A, 32T, 33Y]mimylin (peptide)
peptide: {C20 diacid-γGlu}-ASGLSTAVLGRLSQELHELQTYPRTETGSATY-NH2
SMILES: CC(C)C[C@H](NC(=O)CNC(=O)[C@H](CO)NC(=O)[C@H](C)NC(=O)CC[C@H](NC(=O)CCCCCCCCCCCCCCCCCCC(=O)O)C(=O)O)C(=O)N[C@@H](CO)C(=O)N[C@H](C(=O)N[C@@H](C)C(=O)N[C@H](C(=O)N[C@@H](CC(C)C)C(=O)NCC(=O)N[C@@H](CCCNC(=N)N)C(=O)N[C@@H](CC(C)C)C(=O)N[C@@H](CO)C(=O)N[C@@H](CCC(N)=O)C(=O)N[C@@H](CCC(=O)O)C(=O)N[C@@H](CC(C)C)C(=O)N[C@@H](Cc1c[nH]cn1)C(=O)N[C@@H](CCC(=O)O)C(=O)N[C@@H](CC(C)C)C(=O)N[C@@H](CCC(N)=O)C(=O)N[C@H](C(=O)N[C@@H](Cc1ccc(O)cc1)C(=O)N1CCC[C@H]1C(=O)N[C@@H](CCCNC(=N)N)C(=O)N[C@H](C(=O)N[C@@H](CCC(=O)O)C(=O)N[C@H](C(=O)NCC(=O)N[C@@H](CO)C(=O)N[C@@H](C)C(=O)N[C@H](C(=O)N[C@@H](Cc1ccc(O)cc1)C(N)=O)[C@@H](C)O)[C@@H](C)O)[C@@H](C)O)[C@@H](C)O)C(C)C)[C@@H](C)O

- IC50: 547 pM
B2: [N-terminal(C20 diacid-gGlu), des1, 4G, 15T, 21E, 23Y, 30S, 31G, 32T, 33Y]mimylin (peptide)
peptide: {C20 diacid-γGlu}-ASGLSTAALGRLSTELHELETYPRTETGSGTY-NH2
SMILES: CC(C)C[C@H](NC(=O)CNC(=O)[C@H](CO)NC(=O)[C@H](C)NC(=O)CC[C@H](NC(=O)CCCCCCCCCCCCCCCCCCC(=O)O)C(=O)O)C(=O)N[C@@H](CO)C(=O)N[C@H](C(=O)N[C@@H](C)C(=O)N[C@@H](C)C(=O)N[C@@H](CC(C)C)C(=O)NCC(=O)N[C@@H](CCCNC(=N)N)C(=O)N[C@@H](CC(C)C)C(=O)N[C@@H](CO)C(=O)N[C@H](C(=O)N[C@@H](CCC(=O)O)C(=O)N[C@@H](CC(C)C)C(=O)N[C@@H](Cc1c[nH]cn1)C(=O)N[C@@H](CCC(=O)O)C(=O)N[C@@H](CC(C)C)C(=O)N[C@@H](CCC(=O)O)C(=O)N[C@H](C(=O)N[C@@H](Cc1ccc(O)cc1)C(=O)N1CCC[C@H]1C(=O)N[C@@H](CCCNC(=N)N)C(=O)N[C@H](C(=O)N[C@@H](CCC(=O)O)C(=O)N[C@H](C(=O)NCC(=O)N[C@@H](CO)C(=O)NCC(=O)N[C@H](C(=O)N[C@@H](Cc1ccc(O)cc1)C(N)=O)[C@@H](C)O)[C@@H](C)O)[C@@H](C)O)[C@@H](C)O)[C@@H](C)O)[C@@H](C)O

- IC50: 326 pM
B5: [N-terminal(C20 diacid-gGlu), des1, 9V, 15Q, 21Q, 23Y, 30S, 31G, 32T, 33Y]mimylin (peptide)
peptide: {C20 diacid-γGlu}-ASELSTAVLGRLSQELHELQTYPRTETGSGTY-NH2
SMILES: CC(C)C[C@H](NC(=O)[C@H](CCCNC(=N)N)NC(=O)CNC(=O)[C@H](CC(C)C)NC(=O)[C@@H](NC(=O)[C@H](C)NC(=O)[C@@H](NC(=O)[C@H](CO)NC(=O)[C@H](CC(C)C)NC(=O)[C@H](CCC(=O)O)NC(=O)[C@H](CO)NC(=O)[C@H](C)NC(=O)CC[C@H](NC(=O)CCCCCCCCCCCCCCCCCCC(=O)O)C(=O)O)[C@@H](C)O)C(C)C)C(=O)N[C@@H](CO)C(=O)N[C@@H](CCC(N)=O)C(=O)N[C@@H](CCC(=O)O)C(=O)N[C@@H](CC(C)C)C(=O)N[C@@H](Cc1c[nH]cn1)C(=O)N[C@@H](CCC(=O)O)C(=O)N[C@@H](CC(C)C)C(=O)N[C@@H](CCC(N)=O)C(=O)N[C@H](C(=O)N[C@@H](Cc1ccc(O)cc1)C(=O)N1CCC[C@H]1C(=O)N[C@@H](CCCNC(=N)N)C(=O)N[C@H](C(=O)N[C@@H](CCC(=O)O)C(=O)N[C@H](C(=O)NCC(=O)N[C@@H](CO)C(=O)NCC(=O)N[C@H](C(=O)N[C@@H](Cc1ccc(O)cc1)C(N)=O)[C@@H](C)O)[C@@H](C)O)[C@@H](C)O)[C@@H](C)O

- IC50: 450 pM
B6: [N-terminal(C20 diacid-gGlu), des1, 4G, 15Q, 21Q, 23Y, 25H, 30S, 31G, 32T, 33Y]mimylin (peptide)
peptide: {C20 diacid-γGlu}-ASGLSTAALGRLSQELHELQTYPHTETGSGTY-NH2
SMILES: CC(C)C[C@H](NC(=O)CNC(=O)[C@H](CO)NC(=O)[C@H](C)NC(=O)CC[C@H](NC(=O)CCCCCCCCCCCCCCCCCCC(=O)O)C(=O)O)C(=O)N[C@@H](CO)C(=O)N[C@H](C(=O)N[C@@H](C)C(=O)N[C@@H](C)C(=O)N[C@@H](CC(C)C)C(=O)NCC(=O)N[C@@H](CCCNC(=N)N)C(=O)N[C@@H](CC(C)C)C(=O)N[C@@H](CO)C(=O)N[C@@H](CCC(N)=O)C(=O)N[C@@H](CCC(=O)O)C(=O)N[C@@H](CC(C)C)C(=O)N[C@@H](Cc1c[nH]cn1)C(=O)N[C@@H](CCC(=O)O)C(=O)N[C@@H](CC(C)C)C(=O)N[C@@H](CCC(N)=O)C(=O)N[C@H](C(=O)N[C@@H](Cc1ccc(O)cc1)C(=O)N1CCC[C@H]1C(=O)N[C@@H](Cc1c[nH]cn1)C(=O)N[C@H](C(=O)N[C@@H](CCC(=O)O)C(=O)N[C@H](C(=O)NCC(=O)N[C@@H](CO)C(=O)NCC(=O)N[C@H](C(=O)N[C@@H](Cc1ccc(O)cc1)C(N)=O)[C@@H](C)O)[C@@H](C)O)[C@@H](C)O)[C@@H](C)O)[C@@H](C)O
